In patent US20250084169A1 (published 2025):

T1: recombinant human full-length CD20 (human, UniProt P11836 1-297)
T1 chain: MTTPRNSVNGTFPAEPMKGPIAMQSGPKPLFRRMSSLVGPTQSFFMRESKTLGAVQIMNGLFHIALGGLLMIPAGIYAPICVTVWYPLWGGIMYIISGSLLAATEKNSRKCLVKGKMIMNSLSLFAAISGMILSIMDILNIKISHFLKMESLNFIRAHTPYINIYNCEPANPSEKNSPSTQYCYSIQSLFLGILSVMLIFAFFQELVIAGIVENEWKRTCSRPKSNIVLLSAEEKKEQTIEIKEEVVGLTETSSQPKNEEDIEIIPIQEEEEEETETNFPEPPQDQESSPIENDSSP

T2: recombinant human Fc gamma RIIa (CD32a) 131R (human, UniProt P12318 36-218)
T2 chain: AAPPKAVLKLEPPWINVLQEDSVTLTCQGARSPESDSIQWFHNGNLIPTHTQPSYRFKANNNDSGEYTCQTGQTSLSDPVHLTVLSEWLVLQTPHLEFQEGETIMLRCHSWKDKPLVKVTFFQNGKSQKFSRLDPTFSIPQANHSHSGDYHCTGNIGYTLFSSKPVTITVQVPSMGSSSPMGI

T3: recombinant human CD19 (human, UniProt P15391 20-291)
T3 chain: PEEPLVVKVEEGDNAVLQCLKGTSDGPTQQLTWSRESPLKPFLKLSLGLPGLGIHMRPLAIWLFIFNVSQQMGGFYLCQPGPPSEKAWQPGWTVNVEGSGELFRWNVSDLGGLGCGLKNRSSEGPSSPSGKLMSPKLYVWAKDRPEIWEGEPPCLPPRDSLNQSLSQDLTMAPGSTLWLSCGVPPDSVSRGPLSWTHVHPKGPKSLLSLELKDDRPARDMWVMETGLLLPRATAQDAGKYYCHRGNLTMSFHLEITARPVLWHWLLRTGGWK

T4: recombinant human Fc gamma RI (CD64) (human, UniProt P12314 16-288)
T4 chain: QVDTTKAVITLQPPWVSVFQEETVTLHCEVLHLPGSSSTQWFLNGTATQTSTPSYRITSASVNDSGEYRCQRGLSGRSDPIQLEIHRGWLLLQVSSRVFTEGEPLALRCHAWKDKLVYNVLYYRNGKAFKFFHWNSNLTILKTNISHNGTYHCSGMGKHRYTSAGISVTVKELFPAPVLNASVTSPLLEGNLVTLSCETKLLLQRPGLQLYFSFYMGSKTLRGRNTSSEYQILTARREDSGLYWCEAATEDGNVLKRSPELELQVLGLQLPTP


How the values were obtained:
Test in all cases: SPR
[1] = target: T1, recombinant human full-length CD20
complement component C1q = complement component C1q (UniProt P02745 23-245; P02746 28-253; P02747 29-245)
[2] = target: T2, recombinant human Fc gamma RIIa (CD32a) …
[3] = target: recombinant human Fc gamma RIIIa (CD16a) 158V (human, UniProt P08637 17-208)
recombinant human CD19 = target: T3, recombinant human CD19
[4] = target: T4, recombinant human Fc gamma RI (CD64)

Sequence of complement component C1q (P02745 23-245, chain 1 of 3): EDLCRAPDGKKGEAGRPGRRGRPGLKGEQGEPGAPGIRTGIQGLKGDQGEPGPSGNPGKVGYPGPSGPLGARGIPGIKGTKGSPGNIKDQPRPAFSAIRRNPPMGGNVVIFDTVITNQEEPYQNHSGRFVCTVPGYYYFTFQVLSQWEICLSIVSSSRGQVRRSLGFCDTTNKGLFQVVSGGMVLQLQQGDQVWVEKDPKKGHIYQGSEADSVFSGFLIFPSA
Sequence of complement component C1q (P02746 28-253, chain 2 of 3): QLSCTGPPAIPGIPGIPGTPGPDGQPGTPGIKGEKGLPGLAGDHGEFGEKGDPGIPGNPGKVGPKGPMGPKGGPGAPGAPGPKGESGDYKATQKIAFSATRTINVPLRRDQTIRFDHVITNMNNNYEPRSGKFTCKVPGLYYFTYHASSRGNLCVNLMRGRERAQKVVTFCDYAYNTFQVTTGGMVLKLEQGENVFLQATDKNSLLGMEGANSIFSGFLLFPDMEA
Sequence of complement component C1q (P02747 29-245, chain 3 of 3): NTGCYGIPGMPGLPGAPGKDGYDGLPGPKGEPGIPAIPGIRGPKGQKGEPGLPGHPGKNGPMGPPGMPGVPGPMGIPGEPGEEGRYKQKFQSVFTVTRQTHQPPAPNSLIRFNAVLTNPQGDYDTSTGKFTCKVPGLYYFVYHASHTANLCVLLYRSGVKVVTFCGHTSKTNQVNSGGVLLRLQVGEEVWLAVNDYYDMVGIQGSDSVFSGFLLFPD
Sequence of recombinant human Fc gamma RIIIa (CD16a) 158V (P08637 17-208 F176V): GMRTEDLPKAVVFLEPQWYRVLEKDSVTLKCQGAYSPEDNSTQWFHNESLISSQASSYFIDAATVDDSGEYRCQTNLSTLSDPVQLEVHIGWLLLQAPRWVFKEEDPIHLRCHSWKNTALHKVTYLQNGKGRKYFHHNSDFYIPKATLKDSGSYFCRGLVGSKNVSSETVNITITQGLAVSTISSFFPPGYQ

Binder | Kd [1] | Kd (complement component C1q) | Kd [2] | Kd [3] | Kd (recombinant human CD19) | Kd [4]
Rituximab (antibody) VH: not shown VL: QIVLSQSPAILSASPGEKVTMTCRASSSVSYIHWFQQKPGSSPKPWIYATSNLASGVPVRFSGSGSGTSYSLTISRVEAEDAATYYCQQWTSNPPTFGGGTKLEIKRTVAAPSVFIFPPSDEQLKSGTASVVCLLNNFYPREAKVQWKVDNALQSGNSQESVTEQDSKDSTYSLSSTLTLSKADYEKHKVYACEVTHQGLSSPVTKSFNRGEC | 0.596 nM | – | – | – | – | –
HB1905 (bispecific antibody) light 1: DIQMTQTTSSLSASLGDRVTISCRASQDISKYLNWYQEKPDGTVKLLIYHTSRLHSGVPSRFSGSGSGTDYSLTISNLEQEDIATYFCQQGNTLPYTFGGGTKLEIKRTVAAPSVFIFPPSDEQLKSGTASVKCLLNNFYPREAKVQWKVDNALQSGNSQESVTEQDSKDSTYSLSSTLTLSKADYEKHKVYACEVTHQGLSSPVTKSFNRGEC heavy 1: EVKLQESGPGLVAPSQSLSVTCTVSGVSLPDYGVSWIRKPPRKGLEWLGVIWGSETTYYNSALKSRLTIIKDNSKSQVFLKMSSLQTDDTAIYYCAKHYYYGGSYAMDYWGQGTSVTVSSASTKGPSVFPLAPSSKSTSGGTAALGCLVKDYFPEPVTVSWNSGALTSGVHTFPAVLQSSGLYSLESVVTVPSSSLGTQTYICNVNHKPSNTKVDKKVEPKSCTDWSPYADQSIKVRISLKSALGDKAYEWNDNEMYLFRSSVAYAMRQYFLKVKNQMILFGEEDVRVANLKPRISFNFFVTAPKNVSDIIPRTEVEKAIRMSRSRINDAFRLNDNSLEFLGIQPTLGPPNQPPVSTSTSPTRSMAPGAVHLPQPVSTRDKTHTCPPCPAPELLGGPSVFLFPPKPKDTLMISRTPEVTCVVVDVSHEDPEVKFNWYVDGVEVHNAKTKPREEQYNSTYRVVSVLTVLHQDWLNGKEYKCKVSNKALPAPIEKTISKAKGQPREPQVCTLPPSRDELTKNQVSLSCAVKGFYPSDIAVEWESNGQPENNYKTTPPVLDSDGSFFLVSKLTVDKSRWQQGNVFSCSVMHEALHNRFTQKSLSLSPG light 2: QVQLQQPGAELVKPGASVKMSCKASGYTFTSYNMHWVKKTPGRGLEWIGAIYPGNGDTSYNQKFKGKATLTADKSSSTAYMQLSSLTSEDSAVYYCARSTYYGGDWYFNVWGAGTLVTVSSASVAAPSVFIFPPSDEQLKSGTASVECLLNNFYPREAKVQWKVDNALQSGNSQESVTEQDSKDSTYSLSSTLTLSKADYEKHKVYACEVTHQGLSSPVTKSFNRGEC heavy 2: not shown | < 0.18 nM | 115 nM | 380 nM | 493 nM | 4.8 nM | 0.234 nM
HB1906 (bispecific antibody) light 1: DIQMTQTTSSLSASLGDRVTISCRASQDISKYLNWYQEKPDGTVKLLIYHTSRLHSGVPSRFSGSGSGTDYSLTISNLEQEDIATYFCQQGNTLPYTFGGGTKLEIKRTVAAPSVFIFPPSDEQLKSGTASVKCLLNNFYPREAKVQWKVDNALQSGNSQESVTEQDSKDSTYSLSSTLTLSKADYEKHKVYACEVTHQGLSSPVTKSFNRGEC heavy 1: EVKLQESGPGLVAPSQSLSVTCTVSGVSLPDYGVSWIRKPPRKGLEWLGVIWGSETTYYNSALKSRLTIIKDNSKSQVFLKMSSLQTDDTAIYYCAKHYYYGGSYAMDYWGQGTSVTVSSASTKGPSVFPLAPSSKSTSGGTAALGCLVKDYFPEPVTVSWNSGALTSGVHTFPAVLQSSGLYSLESVVTVPSSSLGTQTYICNVNHKPSNTKVDKKVEPKSCTDWSPYADQSIKVRISLKSALGDKAYEWNDNEMYLFRSSVAYAMRQYFLKVKNQMILFGEEDVRVANLKPRISFNFFVTAPKNVSDIIPRTEVEKAIRMSRSRINDAFRLNDNSLEFLGIQPTLGPPNQPPVSTSTSPTRSMAPGAVHLPQPVSTRDKTHTCPPCPAPELLGGPSVFLFPPKPKDTLMISRTPEVTCVVVDVSHEDPEVKFNWYVDGVEVHNAKTKPREEQYNSTYRVVSVLTVLHQDWLNGKEYKCKVSNKALPAPIEKTISKAKGQPREPQVCTLPPSRDELTKNQVSLSCAVKGFYPSDIAVEWESNGQPENNYKTTPPVLDSDGSFFLVSKLTVDKSRWQQGNVFSCSVMHEALHNRFTQKSLSLSPG light 2: QVQLQQPGAELVKPGASVKMSCKASGYTFTSYNMHWVKETPGRGLEWIGAIYPGNGDTSYNQKFKGKATLTADKSSSTAYMQLSSLTSEDSAVYYCARSTYYGGDWYFNVWGAGTLVTVSSASVAAPSVFIFPPSDEQLKSGTASVECLLNNFYPREAKVQWKVDNALQSGNSQESVTEQDSKDSTYSLSSTLTLSKADYEKHKVYACEVTHQGLSSPVTKSFNRGEC heavy 2: not shown | 0.423 nM | 115 nM | 329 nM | 488 nM | 3.8 nM | 0.259 nM
